The subject of this data set is Escherichia coli TOP10. Nature of the data set: shrunken log2 fold change of peptide-encoding DNA abundance (4.5 h post-induction vs induction); higher = less antimicrobial activity (less host growth inhibition). The conditions noted are these: time post-induction: 4.5 h; library: site-saturation at positions 5, 18, 19, 20.
Consider RRIRNRPPRLPRPRPRPDYNPRP, for which the “shrunken log2 fold change” value is -0.782.
As for RRIRARPPRLPRPRPRPIMKPRP, the figure is 0.102; as for RRIRHRPPRLPRPRPRPPWIPRP, 0.0139.
As for RRIRCRPPRLPRPRPRPLRFPRP, the figure is 0.0668.
Take RRIRNRPPRLPRPRPRPTSGPRP: the “shrunken log2 fold change” value came out at 0.211.
With RRIRFRPPRLPRPRPRPQVLPRP the figure was -0.00198; with RRIRTRPPRLPRPRPRPARCPRP, 0.324.
With RRIRIRPPRLPRPRPRPAQGPRP, the “shrunken log2 fold change” value was 0.168.
With RRIRFRPPRLPRPRPRPKHWPRP the figure was 0.0787.
As for RRIRIRPPRLPRPRPRPLTIPRP, the figure is -0.536; as for RRIRYRPPRLPRPRPRPPIEPRP, -0.154.
Consider RRIRPRPPRLPRPRPRPDMDPRP, for which the “shrunken log2 fold change” value was -0.21.
With RRIRHRPPRLPRPRPRPRNGPRP the figure was -0.0288; with RRIRARPPRLPRPRPRPQEQPRP, 0.0884.
With RRIRRRPPRLPRPRPRPAFHPRP the figure was 0.083.
With RRIRIRPPRLPRPRPRPTYHPRP the figure was -0.949; with RRIRFRPPRLPRPRPRPVNTPRP, -0.377; with RRIRFRPPRLPRPRPRPMAWPRP, -0.0344.
In the case of RRIRDRPPRLPRPRPRPEKNPRP, the “shrunken log2 fold change” value was determined as 0.489.
With RRIRGRPPRLPRPRPRPAPVPRP the figure was 0.925; with RRIRWRPPRLPRPRPRPAFYPRP, 0.371.
As for RRIRARPPRLPRPRPRPVCWPRP, the figure is 0.894; as for RRIRLRPPRLPRPRPRPTVCPRP, -0.0284.
As for RRIRQRPPRLPRPRPRPACVPRP, the figure is 0.0809; as for RRIRSRPPRLPRPRPRPCEQPRP, 0.000312; as for RRIRVRPPRLPRPRPRPLIRPRP, -0.352.
RRIRTRPPRLPRPRPRPPEKPRP: the “shrunken log2 fold change” value was found to be 0.0774.
As for RRIRMRPPRLPRPRPRPDEVPRP, the “shrunken log2 fold change” value came out at 0.00989.
With RRIRDRPPRLPRPRPRPVHSPRP the figure was -0.243.
For RRIRPRPPRLPRPRPRPSYCPRP, the “shrunken log2 fold change” value is -0.387.
With RRIRWRPPRLPRPRPRPSSWPRP the figure was 0.0927.
Regarding RRIRRRPPRLPRPRPRPPSDPRP, the “shrunken log2 fold change” value is 0.79.
In the case of RRIRWRPPRLPRPRPRPKDLPRP, the “shrunken log2 fold change” value was -0.0295.
As for RRIRERPPRLPRPRPRPALCPRP, the figure is 0.0446.
With RRIRERPPRLPRPRPRPRSAPRP the figure was 0.25.
RRIRPRPPRLPRPRPRPNLEPRP: the “shrunken log2 fold change” value was -0.0337.
As to RRIRNRPPRLPRPRPRPNFWPRP, the “shrunken log2 fold change” value is 0.0138.
With RRIRSRPPRLPRPRPRPTKNPRP the figure was 0.168; with RRIRERPPRLPRPRPRPNIWPRP, -0.0737.
With RRIRDRPPRLPRPRPRPRGFPRP the figure was 0.586.
In the case of RRIRQRPPRLPRPRPRPEICPRP, the “shrunken log2 fold change” value was 0.0414.
As for RRIRFRPPRLPRPRPRPLCCPRP, the “shrunken log2 fold change” value was -0.205.
As for RRIRHRPPRLPRPRPRPYIKPRP, the figure is -0.287; as for RRIRKRPPRLPRPRPRPAGNPRP, 0.304; as for RRIRMRPPRLPRPRPRPQGTPRP, -0.000856.
As for RRIRHRPPRLPRPRPRPQCRPRP, the figure is -0.0351; as for RRIRARPPRLPRPRPRPMNIPRP, -0.583.
As for RRIRGRPPRLPRPRPRPCHCPRP, the figure is -0.017; as for RRIRWRPPRLPRPRPRPEGFPRP, 0.192; as for RRIRHRPPRLPRPRPRPTMMPRP, -0.503.
Take RRIRQRPPRLPRPRPRPYLVPRP: the “shrunken log2 fold change” value is -0.551.
With RRIRVRPPRLPRPRPRPPLLPRP the figure was 0.287; with RRIRERPPRLPRPRPRPDNAPRP, -0.245.
On to RRIRARPPRLPRPRPRPKDDPRP, for which the “shrunken log2 fold change” value turned out to be 0.811.
As for RRIRRRPPRLPRPRPRPNGIPRP, the “shrunken log2 fold change” value is -0.0555.
With RRIRGRPPRLPRPRPRPRQYPRP the figure was -0.0954; with RRIRCRPPRLPRPRPRPCVTPRP, 0.0974.
Turning to RRIRGRPPRLPRPRPRPFFPPRP, the “shrunken log2 fold change” value was 0.154.
RRIRYRPPRLPRPRPRPSWYPRP: the “shrunken log2 fold change” value was -0.772.
With RRIRKRPPRLPRPRPRPEVFPRP the figure was 0.403; with RRIRRRPPRLPRPRPRPQEEPRP, 0.0332.
As for RRIRYRPPRLPRPRPRPELTPRP, the figure is 0.075.
In the case of RRIRARPPRLPRPRPRPNMKPRP, the “shrunken log2 fold change” value is -0.348.
As for RRIRNRPPRLPRPRPRPDPNPRP, the figure is -0.488; as for RRIRMRPPRLPRPRPRPPRTPRP, 1.46.
As for RRIRIRPPRLPRPRPRPVMAPRP, the figure is -0.526; as for RRIRWRPPRLPRPRPRPTPVPRP, 0.49.
As for RRIRLRPPRLPRPRPRPQYAPRP, the figure is -0.0369; as for RRIRDRPPRLPRPRPRPYWKPRP, -0.00829; as for RRIRRRPPRLPRPRPRPCYNPRP, -0.41.
Regarding RRIRLRPPRLPRPRPRPQVNPRP, the “shrunken log2 fold change” value was -0.141.
For the sequence RRIRIRPPRLPRPRPRPVKGPRP, the “shrunken log2 fold change” value was -0.0688.
With RRIRYRPPRLPRPRPRPRSWPRP the figure was -0.0913; with RRIRYRPPRLPRPRPRPGGGPRP, 0.64; with RRIRVRPPRLPRPRPRPEWRPRP, 0.212.
Regarding RRIRQRPPRLPRPRPRPCMCPRP, the “shrunken log2 fold change” value was -0.147.
With RRIRARPPRLPRPRPRPYMLPRP the figure was -0.659; with RRIRVRPPRLPRPRPRPFIVPRP, -0.285; with RRIRFRPPRLPRPRPRPSRRPRP, -0.0576.
With RRIRGRPPRLPRPRPRPGTWPRP the figure was 0.255; with RRIRFRPPRLPRPRPRPIAKPRP, -0.181.
As for RRIRLRPPRLPRPRPRPDFDPRP, the figure is -0.047; as for RRIRLRPPRLPRPRPRPPWCPRP, 0.402.
On to RRIRERPPRLPRPRPRPHSSPRP, for which the “shrunken log2 fold change” value is -0.0464.
As for RRIRPRPPRLPRPRPRPKAHPRP, the figure is 0.0759.
As for RRIRRRPPRLPRPRPRPCIYPRP, the figure is 0.0603; as for RRIRIRPPRLPRPRPRPISLPRP, -0.129; as for RRIRRRPPRLPRPRPRPRLQPRP, 0.349.
With RRIRQRPPRLPRPRPRPNEMPRP the figure was 0.105; with RRIRHRPPRLPRPRPRPFGRPRP, -0.0135; with RRIRPRPPRLPRPRPRPFISPRP, -0.706.
In the case of RRIRERPPRLPRPRPRPYSGPRP, the “shrunken log2 fold change” value is -0.218.
For the sequence RRIRERPPRLPRPRPRPSSSPRP, the “shrunken log2 fold change” value is 0.307.
As for RRIRQRPPRLPRPRPRPVYSPRP, the figure is -0.0563; as for RRIRKRPPRLPRPRPRPWCGPRP, 0.153; as for RRIRWRPPRLPRPRPRPTSCPRP, 0.581.
With RRIRVRPPRLPRPRPRPGVQPRP the figure was -0.0209; with RRIRDRPPRLPRPRPRPNANPRP, 0.000903; with RRIRFRPPRLPRPRPRPHREPRP, -0.0534.
As for RRIRWRPPRLPRPRPRPCYDPRP, the figure is -0.00133.
Consider RRIRGRPPRLPRPRPRPTYHPRP, for which the “shrunken log2 fold change” value amounted to 0.0704.
As for RRIRFRPPRLPRPRPRPAAEPRP, the figure is 0.558; as for RRIRFRPPRLPRPRPRPKWYPRP, -0.388; as for RRIRIRPPRLPRPRPRPPIPPRP, 0.00551.
For RRIRYRPPRLPRPRPRPFMTPRP, the “shrunken log2 fold change” value was -2.5.
In the case of RRIRNRPPRLPRPRPRPCMVPRP, the “shrunken log2 fold change” value is -0.69.
With RRIRERPPRLPRPRPRPASVPRP the figure was -0.0789.
RRIRHRPPRLPRPRPRPSYKPRP: the “shrunken log2 fold change” value is -0.0553.
Regarding RRIRIRPPRLPRPRPRPWRNPRP, the “shrunken log2 fold change” value is -0.0466.
With RRIRQRPPRLPRPRPRPIIRPRP the figure was 0.00525; with RRIRGRPPRLPRPRPRPTWVPRP, 0.493; with RRIRRRPPRLPRPRPRPTCHPRP, 0.0647.
Regarding RRIRNRPPRLPRPRPRPRCKPRP, the “shrunken log2 fold change” value stood at 0.0547.
With RRIRVRPPRLPRPRPRPSRMPRP the figure was -0.0384; with RRIRRRPPRLPRPRPRPVSMPRP, 0.22; with RRIRLRPPRLPRPRPRPHQQPRP, 0.0445.
With RRIRFRPPRLPRPRPRPKMRPRP the figure was 0.223.
With RRIRERPPRLPRPRPRPDREPRP the figure was -0.0729; with RRIRPRPPRLPRPRPRPVQAPRP, -0.013.
On to RRIRGRPPRLPRPRPRPEGGPRP, for which the “shrunken log2 fold change” value worked out at 1.17.
With RRIRTRPPRLPRPRPRPRQRPRP the figure was 0.394; with RRIRGRPPRLPRPRPRPHAVPRP, 0.657; with RRIRSRPPRLPRPRPRPNEYPRP, -1.02.
For the sequence RRIRKRPPRLPRPRPRPGCHPRP, the “shrunken log2 fold change” value was 0.0456.
With RRIRNRPPRLPRPRPRPPWNPRP the figure was 0.0711.

Values taken from the supplement of paper PMC9112550, “Optimization of the antimicrobial peptide Bac7 by deep mutational scanning” (BMC Biology, 2022).
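Further: peptides expressed intracellularly from a pBAD plasmid library in pooled LB shake-flask culture, induced with 0.3% L-arabinose, DNA abundance read by NGS, three biological replicates, DESeq2 with apeglm shrinkage.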
